From patent US20180343839A1 (BROAD INSTITUTE, published 2018)

Target: RAB28 (human, UniProt P51157 2-218)
Assay: CRBN interaction study (HA-CRBN immunoprecipitation, SILAC MS); assay not given

B1: HA-CRBN (hemagglutinin (HA)-tagged human CRBN) (other)
chain: MAGEGDQQDAAHNMGNHLPLLPESEEEDEMEVEDQDSKEAKKPNIINFDTSLPTSHTYLGADMEEFHGRTLHDDDSCQVIPVLPQVMMILIPGQTLPLQLFHPQEVSMVRNLIQKDRTFAVLAYSNVQEREAQFGTTAEIYAYREEQDFGIEIVKVKAIGRQRFKVLELRTQSDGIQQAKVQILPECVLPSTMSAVQLESLNKCQIFPSKPVSREDQCSYKWWQKYQKRKFHCANLTSWPRWLYSLYDAETLMDRIKKQLREWDENLKDDSLPSNPIDFSYRVAACLPIDDVLRIQLLKIGSAIQRLRCELDIMNKCTSLCCKQCQETEITTKNEIFSLSLCGPMAAYVNPHGYVHETLTVYKACNLNLIGRPSTEHSWFPGYAWTVAQCKICASHIGWKFTATKKDMSPQKFWGLTRSALLPTIPDTEDEISPDKVILCL
notes: the clone used (Broad ORF007943.1_s300c1); its numbering fits V387, Y383 and W385 as printed; also called HA-tagged CRBN; HA-CBRN; not shown: HA tag
binding result: no binding
